The target in the experiment is T1, recombinant human IL4 (human, UniProt P05112 25-153).
T1 construct: Bought protein; also called human IL4 (Millipore catalog # IL004)
T1 sequence (looked up): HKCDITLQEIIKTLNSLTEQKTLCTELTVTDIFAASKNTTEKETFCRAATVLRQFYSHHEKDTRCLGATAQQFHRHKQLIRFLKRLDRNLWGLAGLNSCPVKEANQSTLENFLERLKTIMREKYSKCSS
The experiment is described as follows: SPR (Biacore), captured antibody, IL4 as analyte.

This is an account of results in patent publication US20170320967A1 (published 2017).

B1: Binding Protein 18, (anti-IL4 × anti-IL13) × anti-IL13 (bispecific antibody, human IgG1, kappa, lambda)
heavy 1: not shown
light 1: DIVLTQSPASLAVSLGQRATISCRASESVDSYGQSYMHWYQQKAGQPPKLLIYLASNLESGVPARFSGSGSRTDFTLTIDPVQAEDAATYYCQQNAEDSRTFGGGTKLEIKGQPKAAPSVTLFPPSSEELQANKATLVCLISDFYPGAVTVAWKADSSPVKAGVETTTPSKQSNNKYAASSYLSLTPEQWKSHRSYSCQVTHEGSTVEKTVAPTECS
heavy 2: not shown
light 2: not shown
notes: Bispecific trivalent (CODV-Fab) × Fab-IgG1 Fc; kappa on CODV-LC, lambda on Fab-arm-LC; CODV-HC knob-RF, Fab-arm-HC hole; also called IL13 × (IL4 × IL13)
Take B1: the Kd worked out at 1.02 pM.
